Measurements from EP2265632B1 (Elevation Biotech (Pty) Ltd., dated 2009).

Biological target: recombinant HIV-1BaL gp120 (HIV-1 BaL)
Assay: SPR (Biacore 3000), gp120BaL immobilised on CM5 chip, peptide as analyte

B1: 12p1 (RINNIPWSEAMM), 12-mer peptide (peptide)
peptide: H-RINNIPWSEAMM-NH2
notes: Quality control peptide of the SPR assay
Kd: 1020 nM
